Results from patent US20230406922A1 (SIMCERE ZAIMING PHARMACEUTICAL, published 2023).

Tests used:
murine CD19 protein = molecular target: T1, murine CD19 protein (murine, UniProt P25918 19-287, limits assumed); assay: ELISA, murine CD19 coated
T1 construct: also called mouse CD19-his protein
T1 sequence (looked up): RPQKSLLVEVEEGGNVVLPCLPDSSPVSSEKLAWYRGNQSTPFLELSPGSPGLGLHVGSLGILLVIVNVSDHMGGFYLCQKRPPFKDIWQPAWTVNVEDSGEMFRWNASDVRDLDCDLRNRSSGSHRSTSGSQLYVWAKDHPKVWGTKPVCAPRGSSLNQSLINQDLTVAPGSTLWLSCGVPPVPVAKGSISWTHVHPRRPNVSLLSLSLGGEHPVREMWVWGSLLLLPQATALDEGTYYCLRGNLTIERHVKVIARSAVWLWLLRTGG

monkey CD19-his protein = monkey CD19-his protein (monkey); assay: ELISA, monkey CD19 coated
Experimental: After incubation for 2 h at 37° C., the plate was washed 3 times with PBS. […] After incubation for 1 h at 37° C., the plate was washed 5 times with PBS. A TMB substrate was added at 50 μL/well. After incubation at room temperature for 10 min, a stop solution (1.0 N HCl) was added at 50 μL/well. The OD450 nm values were read on an ELISA microplate reader (Multimode Plate Reader, EnSight, purchased from Perkin Elmer). […] The negative control antibody mIgG1 was an antibody against hen egg lysozyme, anti-hel-mIgG1 (purchased from Biointron, Cat. No. B118301), and the data in the table were OD450 nm values.
IgG control was mIgG1, S003-NB151-89 was a clone that is selected from a library constructed by peripheral blood collected from Alpaca immunized by human CD19-His and can bind to a monkey CD19-His protein, and was used as a positive control, and the data in the table were OD450 nm values.

[1] = molecular target: T2, monkey CD19, full length, on HEK293T cells (monkey, UniProt P15391 20-556 (human entry)); assay: FACS on HEK293T-monkey CD19 cells
T2 construct: The entry holds the signal peptide; also called HEK293T-monkey CD19
T2 chain: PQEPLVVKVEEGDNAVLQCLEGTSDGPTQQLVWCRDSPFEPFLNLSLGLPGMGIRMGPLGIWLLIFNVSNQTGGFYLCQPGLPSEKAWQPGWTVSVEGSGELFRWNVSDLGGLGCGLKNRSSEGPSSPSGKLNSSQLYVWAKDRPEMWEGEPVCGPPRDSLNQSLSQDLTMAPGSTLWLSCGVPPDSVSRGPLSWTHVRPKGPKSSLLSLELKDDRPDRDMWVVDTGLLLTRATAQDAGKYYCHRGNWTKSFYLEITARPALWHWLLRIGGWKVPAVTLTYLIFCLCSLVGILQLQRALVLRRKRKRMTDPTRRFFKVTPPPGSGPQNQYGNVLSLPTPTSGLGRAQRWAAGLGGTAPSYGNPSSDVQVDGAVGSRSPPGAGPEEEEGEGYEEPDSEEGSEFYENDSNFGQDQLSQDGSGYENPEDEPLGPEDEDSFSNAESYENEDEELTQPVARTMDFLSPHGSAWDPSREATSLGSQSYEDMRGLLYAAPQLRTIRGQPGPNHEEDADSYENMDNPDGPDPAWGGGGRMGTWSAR
Experimental: (§1) For suspension cells Raji, the medium supernatant was discarded by direct centrifugation, and the cell pellet was washed twice with PBS. After cell counting of the cells obtained in the last step, the cell pellet was resuspended to 2×10⁶ cells/mL with a blocking solution [PBS+2% (w/w) BSA] and added into a 96-well FACS reaction plate at 50 μL/well. […] After the plate was centrifuged and washed 5 times with a PBS buffer, the results were assayed and analyzed by FACS (FACS Canto™, purchased from BD Biosciences). Data analysis was performed by software (CellQuest) to obtain the mean fluorescence intensity (MFI) of the cells. Then, analysis was performed by software (GraphPad Prism8), data were fitted, and EC₅₀ values were calculated.
(§2) HEK293T-monkey CD19 cells were subjected to the FACS assay and data analysis according to the method described in Example 4.2.

[2] = molecular target: T3, cynomolgus monkey CD19 on peripheral blood B cells (cynomolgus monkey (Macaca fascicularis), UniProt A0A2K5W8L9 20-557); assay: FACS on cynomolgus monkey PBMC, gated on CD20-positive B cells
T3 construct: whole, on cells; also called cynomolgus monkey B cells
T3 sequence: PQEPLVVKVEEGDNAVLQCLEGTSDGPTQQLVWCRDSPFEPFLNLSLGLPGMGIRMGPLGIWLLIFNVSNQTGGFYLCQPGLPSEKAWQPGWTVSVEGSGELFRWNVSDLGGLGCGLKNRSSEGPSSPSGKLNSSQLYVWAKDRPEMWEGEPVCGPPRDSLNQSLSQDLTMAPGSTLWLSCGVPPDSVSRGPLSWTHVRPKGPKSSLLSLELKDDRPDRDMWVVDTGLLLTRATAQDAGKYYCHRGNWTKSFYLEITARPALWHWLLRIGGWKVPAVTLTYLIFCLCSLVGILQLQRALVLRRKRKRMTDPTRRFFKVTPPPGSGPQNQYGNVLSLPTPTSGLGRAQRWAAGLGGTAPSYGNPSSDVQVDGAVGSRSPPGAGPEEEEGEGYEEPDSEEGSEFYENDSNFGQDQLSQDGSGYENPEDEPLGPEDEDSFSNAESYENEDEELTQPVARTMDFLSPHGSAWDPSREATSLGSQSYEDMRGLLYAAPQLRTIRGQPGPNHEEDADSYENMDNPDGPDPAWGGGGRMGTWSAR
Experimental: Monkey peripheral blood mononuclear cells were extracted from fresh cynomolgus monkey peripheral blood (purchased from Shanghai Medicilon Inc.) according to Ficoll-Paque Plus (purchased from GE Healthcare, Cat. No. 171440-02). […] The cells were incubated at room temperature for 1 h. […] The cells were incubated at room temperature for 30 min in the dark, washed 5 times, gently resuspended in PBS, and assayed and analyzed by FACS (FACS Canto™, purchased from BD Biosciences), in which CD20 was used as a marker for B cells.

[3] = molecular target: T2, monkey CD19, full length, on HEK293T …; assay: FACS titration on HEK293T-monkey CD19 cells
Experimental: as §1, §2

Binder | OD450 at 0.0001 nM (murine CD19 protein) | OD450 at 0.001 nM (murine CD19 protein) | OD450 at 0.01 nM (murine CD19 protein) | OD450 at 0.10 nM (murine CD19 protein) | OD450 at 1.00 nM (murine CD19 protein) | OD450 at 10.00 nM (murine CD19 protein) | OD450 at 100.00 nM (murine CD19 protein) | OD450 at 0.0001 nM (monkey CD19-his protein) | OD450 at 0.001 nM (monkey CD19-his protein) | OD450 at 0.01 nM (monkey CD19-his protein) | OD450 at 0.10 nM (monkey CD19-his protein) | OD450 at 1.00 nM (monkey CD19-his protein) | OD450 at 10.00 nM (monkey CD19-his protein) | OD450 at 100.00 nM (monkey CD19-his protein) | EC50 [1] | maximum mean fluorescence intensity [1] | proportion of positive cells to B cells (%) at 1 nM [2] | proportion of positive cells to B cells (%) at 10 nM [2] | proportion of positive cells to B cells (%) at 100 nM [2] | EC50 (read off the curve) [3]
FMC63-mIgG1 (antibody, V domains shown, Parent murine antibody; also called murine antibody FMC63) VH: EVKLQESGPGLVAPSQSLSVTCTVSGVSLPDYGVSWIRQPPRKGLEWLGVIWGSETTYYNSALKSRLTIIKDNSKSQVFLKMNSLQTDDTAIYYCAKHYYYGGSYAMDYWGQGTSVTVSS VL: DIQMTQTTSSLSASLGDRVTISCRASQDISKYLNWYQQKPDGTVKLLIYHTSRLHSGVPSRFSGSGSGTDYSLTISNLEQEDIATYFCQQGNTLPYTFGGGTKLEITR | 0.06 OD450 | 0.06 OD450 | 0.05 OD450 | 0.05 OD450 | 0.06 OD450 | 0.07 OD450 | 0.1 OD450 | 0.05 OD450 | 0.05 OD450 | 0.05 OD450 | 0.05 OD450 | 0.05 OD450 | 0.05 OD450 | 0.09 OD450 | – | – | – | – | – | –
9G8-mIgG1 (antibody, V domains shown, Control anti-CD19 antibody with monkey cross-activity) VH: EVQLVQSGAEVKKPGESLKISCKGSGYSFTSYWIGWVRQMPGKGLEWMGIIYPGDSDTRYSPSFQGQVTISADKSISTAYLQWSSLKASDTAMYYCARGVSGIYNLHGFDIWGQGTLVTVSS VL: DIQMTQSPSSLSASVGDRVTITCRASQSISSYLNWYQQKPGKAPKLLIYAASSLQSGVPSRFSGSGSGTDFTLTISSLQPEDFATYYCQQGRFGSPFTFGQGTKVEIKR | – | – | – | – | – | – | – | – | – | – | – | – | – | – | 2.08 nM | 19500 MFI | 3% | 14% | 71% | ~0.4 nM
